Results on two molecules are retold here after publication PMC4155686, “Oleoyl Coenzyme A Regulates Interaction of Transcriptional Regulator RaaS (Rv1219c) with DNA in Mycobacteria*” (The Journal of Biological Chemistry, 2014).

Series [1] concerns the molecule itself. The series can be described thus: small-angle X-ray scattering; protein alone in solution at 1 and 3 mg/ml, data extrapolated to infinite dilution; apparent molecular mass from I(0).
For the next series, the target named is T1, RaaS wild type (Mycobacterium tuberculosis, UniProt O86312 1-212).
T1 sequence: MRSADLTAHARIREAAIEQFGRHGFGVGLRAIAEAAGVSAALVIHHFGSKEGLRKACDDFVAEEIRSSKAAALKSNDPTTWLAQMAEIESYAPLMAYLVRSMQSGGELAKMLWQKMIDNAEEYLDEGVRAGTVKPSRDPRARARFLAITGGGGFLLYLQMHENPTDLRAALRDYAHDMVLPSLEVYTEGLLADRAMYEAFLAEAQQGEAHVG
The series can be described thus: fluorescence anisotropy; 4 nM DNA. The conditions noted are these: protein: recombinant; chain copies: 2. On the technique in general: In fluorescence polarisation assays a small probe gives low polarisation when free and higher when bound to something large.

B1: RaaS (regulator of antimicrobial-assisted survival), Rv1219c, wild type (natural protein)
chain: MRSADLTAHARIREAAIEQFGRHGFGVGLRAIAEAAGVSAALVIHHFGSKEGLRKACDDFVAEEIRSSKAAALKSNDPTTWLAQMAEIESYAPLMAYLVRSMQSGGELAKMLWQKMIDNAEEYLDEGVRAGTVKPSRDPRARARFLAITGGGGFLLYLQMHENPTDLRAALRDYAHDMVLPSLEVYTEGLLADRAMYEAFLAEAQQGEAHVG
notes: also called wild-type RaaS
As usually defined, the stoichiometry N is the number of molecules, sites or subunits per partner or assembly. For the molecule B1, the “stoichiometry N” value in series [1] was 2.

B2: Pr14F/Pr14R (ATTO 647N) (dsDNA)
DNA 1: GGGATGAACGTACGTTTAATATCCTGAACATGCGTTCAG
DNA 2: GGGCTGAACGCATGTTCAGGATATTAAACGTACGTTCAT
What is called Kd is a measure of binding affinity in units of concentration. B2: the Kd with RaaS wild type stood at 31 ± 6 nM.
